Results published in US20190201542A1 (AbbVie / Abbott, published 2019).
Where a chain is given by its changes, count along the chain named.

B1: SC16.22 (antibody, V domains shown)
VH: QVQLQQPGAELVKPGASVKLSCKASGYTFTTYWMHWVKQRPGQGLEWIGEIDPSDSYTYYNQKFKGKATLTVDKSSSTAYMQLSSLTSEDSAVYYCARGDYGNPYAMDYWGQGSSVTVSS
VL: DIQMTQTTSSLSASLGDRVTISCRASQDIKNYLNWYQQKPDGTVKPLIYYTSRVHSGVPSRFSGSGSGTDYSLTISNLEQEDIATYFCQQGYTLPFTFGSGTKLEIK
notes: murine mAb
B2: SC16.47 (antibody, V domains shown)
VH: EVQLQQSGPELVKPGASVKISCKASGYSFSRFYMHWVKQSPENSLEWIGEINPSTGGTSYNQKFKGKATLTVDKSSSTAYMQLKSLTSEESAVYYCTRGYGSNCYFDVWGAGTTVTVST
VL: DVVLTQSPLSLPVNIGDQASISCKSTKSLLNSDGFTYLDWYLQRPGQSPQFLIYLVSNRFSGVPDRFSGSGSGTDFTLKISRVEAEDLGVYYCFQSNYLPLTFGAGTKLELR
notes: murine mAb
B3: SC16.20 (antibody, V domains shown)
VH: QVQLQQSGTELVRPGTSVRVSCKASGYAFGNHLIEWVKQRPGQGLEWIGVINPGTGGTHYNEKFKDKARLTADKSSNTAYMHLNSLTSDDSAVYFCARSPYDYHEGAMDYWGQGTSVTVSS
VL: EIQMTQSPSSMSASLGDRITITCQATQDIVKNLNWYQQKPGKPPSFLIYYATELAEGVPSRFSGSGSGSDYSLTIRNLESEDFADHYCLQFYEFPFTFGAGTKLELK
notes: murine mAb
B4: SC16.45 (antibody, V domains shown)
VH: QVQLQQSGADLVRPGTSVKVSCKASGYSFTNYLIEWVKQRPGQGLEWIGVINPGSGGTHYNEKFKDKAVLTADKSSTTAHMQLSSLTSDDSAVYFCARSPYDYNDGAMDYWGQGTSVTVSS
VL: B3 VL with S60A, R76S, H86Y, Y87H
notes: murine mAb
B5: SC16.29 (antibody, V domains shown)
VH: QVQLQQSGAELARPGASVKLSCKASGYTFTDQYINWVKQRTGQGLEWIGEIYPGRGNTYYNEKFKGKATLTADKSSSTAYMQLSSLTSEDSAVYFCAREDGGYDDAWFAYWGQGTLVTVSA
VL: QIVLTQSPAIMSASPGEKVTITCSASSSVSYMHWFQQKPGTSPKLWIYTTSNLASGVPARFSGSGSGTSYSLTVSRMEAEDAATYYCQQRSLYPYTFGGGTKVEIK
notes: murine mAb
B6: SC16.3 (antibody, V domains shown)
VH: QVTLKESGPGILQPSQTLSLTCSFSGFSLSTSGMGVGWIRQPSGKGLEWLAHIWWDDVKRYNPALKSRLTISKDTSSSQVFLKIASVDTADTATYYCARIADYGGDYYAMDYWGQGTSVTVSS
VL: QIVLTQSPAIMSVSLGERVTMTCTASSSVSSSYLHWYQQKPGSSPKLWIYSTSNLASGVPARFSGSGSGTSYFFTISSMEAEDAATYYCHQYHRSPFTFGAGTKLKIR
notes: murine mAb
B7: SC16.30 (antibody, V domains shown)
VH: QVTLKESGPGILQPSQTLSLTCSFSGFSLSTSGMGVGWIRQPSGKGLEWLAHIWWDDVKRYKPALKSRLTVSKDTSSNQVFLKIATVDAADTGTYYCARIVDGHPPFAYWGQGTLVTVSA
VL: B6 VL with A9T, V13A, S30T, F73S, F74L, Y92F, A101S, K106E, R108K
notes: murine mAb
B8: SC16.49 (antibody, V domains shown)
VH: QVQLQQSGPELVKPGTLVKISCKASGYTFTSYDINWVKQRPGQGLEWIGWIYPGDGNTKYSEKFKGKATLTADKSSSTAYMQLTSLTSENSAVYFCARDYDYPFAYWGQGTLVTVSA
VL: DIKMTQSPSSMYASLGERVTITCKASQDINSYLSWFQQKPGKSPKTLIYRANRLVDGVPSRFSGSGSGQDYSLTITSLEYEDMGIYYCLQYDEFPLTFGAGTKLELK
notes: murine mAb
B9: SC16.55 (antibody, V domains shown)
VH: EVQLVESGGGLVQPKGSLKLSCAVSAFTFTTYAMNWVRQAPGKGLEWVARIRNKSNNYATYYADSVKDRFTISRDDSQSMLYLQMNNLKIEDTAMYYCVFYYDYVYWGQGTLVTVSA
VL: B8 VL with S34N, T76S, L96Y, A100G, L106I
notes: murine mAb
B10: SC16.18 (antibody, V domains shown)
VH: EVKLEESGGGLVQPGESMKLSCAASGFTFSDAWMDWVRQSPEKGLEWVAEIRNKANNHATYYAESVKGKFTISRDDSKSRVYLQMNNLRAADTGIYYCTAYSNFAYWGQGTLVTVST
VL: DIQMTQTTSSLSASLGDRVTISCRASQNIINYLNWYQQKPDGTVKLLIYYTSRLHSGVPSRFSGSGSGTDYSLTISNLEPEDIATYYCQQYSERPYTFGGGTKLEIK
notes: murine mAb
B11: SC16.4 (antibody, V domains shown)
VH: QIQLVQSGPELKKPGETVKISCKASGYTFTDYSMHWVKQAPGKGLKWMGWINTETGEPGYADDFKGRFAFSLETSASTAYLQINNLKNEDTATYFCARYDGYAMDYWGQGTSVTVSS
VL: B1 VL with K30S, P46L, V54L, Q80L, Y92D, T93M, F96W, S100G
notes: murine mAb
B12: SC16.35 (antibody, V domains shown)
VH: DVQLQESGPGLVKPSQSLSLTCTVTGYSITSDYAWNWIRQFPGNKLEWMGYISYSGSTSYNPSLKSRISITRDTSKNQFFLQLNSVTTEDTATYYCARFYYGSSYAMDYWGQGTSVTVSS
VL: B1 VL with K30S, P46L, V54L, Y92N, F96Y, S100G
notes: murine mAb
B13: SC16.41 (antibody, V domains shown)
VH: B10 VH with P14F, E16G, A63P, K69R, A91E, A100G, N103S, T117A
VL: B10 VL with N28D, I29V, G68R
notes: murine mAb
B14: SC16.5 (antibody, V domains shown)
VH: QVTLKESGPGILQPSQTLSLTCSFSGFSLSTSGMGVGWIRQPSGEGLEWLADIWWDDNKYYNPSLKSRLTISKDTSSNQVFLKITSVDTADTATYYCARRVNYVYDPYYAMDYWGQGTSVTVSS
VL: QIVLTQSPAIMSASPGEKVTMTCSASSSVSYMHWYQQKSGTSPKRWIYDTSKLASGVPARFSGSGSGTSYSLTISSMEAEDAATYYCQQWTRNPLTFGAGTKLELK
notes: murine mAb
B15: SC16.25 (antibody, V domains shown)
VH: B14 VH with A51T, K83N, V104Y
VL: B14 VL with T50S, T91S, R92S
notes: murine mAb
B16: SC16.42 (antibody, V domains shown)
VH: QIQLVQSGPELKKPGETVKISCKASGYTFTTAGMQWVQKMPGKGFKWIGWINTHSGEPKYADDFKGRFAFSLETSASTAYLQISNLKDEDTATFFCAPLWSDSSFAYWGQGTLVTVSA
VL: DVLMTQSPLSLSVSLGDQASISCRSSQNIVHSDRYTYLEWYLQKPGQSPKLLIYGVSNRFSGVPDRFSGSGSGTDFTLKISRVEAEDMGVYYCFQGTHVPYTFGGGTKLEIK
notes: murine mAb
B17: SC16.19 (antibody, V domains shown)
VH: EVQLQQSGAELVRPGASVKLSCTASGFNIKDSLLHWVKQRPEKGLEWIGWIDPEDGETKYAPNFQDKATITTDSSSNTAYLQLISLTSVDTAIYYCAYGNYVRHFDYWGQGTTLTVSS
VL: DIQMTQSPSSLSASLGGKVTFTCKASQDIHKYVAWYQHKPGKGPRLLIHYTSTLQPGISSRFSGSGSGRDYSFSISNLEPEDIATYYCLQYNNLYTFGGGTKLEIK
notes: murine mAb
B18: SC16.21 (antibody, V domains shown)
VH: QVQLQQSGPELVKPGASVKISCKASGYAFSSSWMNWVKQRPGKGLEWIGRIYPGDGDTNYNGKFKGKATLTADKSSSTAYMQLSSLTSEDSAVYFCAMGIYNYDGSRYYSMDYWGQGTSVTVSS
VL: DIVMTQSPSSLAMSVGQKVTMSCKSSQSLLNSSNQKNYLAWYQQEPGQSPKLLVSFASTRESGVPDRFTGSGSGTDFTLTISGVQAEDLAVYYCQQHYSIPLTFGAGTKLELK
notes: murine mAb
B19: SC16.52 (antibody, V domains shown)
VH: QVQLKESGPGLVAPSQSLSITCAVSGFSLTSFAIHWFRKPPGKGLEWLGVIWTGGTTNYNSALMSRLSISKDNSKSQVFLKMNSLQTDDTAMYYCARDDYDNNYAMDYWGQGTSVTVSS
VL: DIQMIQSPSSMFASLGDRVSLSCRASQGIRGTLDWYQQKPNGTIKLLIYSTSNLNSGVPSRFSGSGSGSDYSLTISSLESEDFADYYCLQRNAYPLTFGAGTKLELK
notes: murine mAb
B20: SC16.57 (antibody, V domains shown)
VH: EVKLVESGGDLVKPGGSLKLSCAASGFAFSSYDMSWVRQTPEKRLEWVATISSGGSYTYYPDSVKGRFTISRDNVRDTLYLQMSSLRSEDTALYYCARQAIGTYFDYWGQGTTLTVSS
VL: DIVMTQSHKFMSISVGDRVSITCKASQDVSIFVAWYQQKPGQSPKLLIYSASYRYTGVPDRFTGSGSGTDFIFTISSVQAEDLAVYYCQQHYGTPFTFGSGTKLKIR
notes: murine mAb
B21: SC16.38 (antibody, V domains shown)
VH: EVQLQQSGAELVKPGASVKLSCTVSGFNIKDTYIHWVKQRPEQGLEWIGRIDPANGNTKYDPKFQGKATITADTSSNTAYLQLSSLTSEDTAVYYCARPTGYFEYWGQGTTLTVSS
VL: QIVLTQSPAIMSASPGEKVTMTCSASSSINYMHWYQQKPGTSPKRWIYDTSKLASGVPARFSGSGSGTSYSLTISSMEAEDAATYYCHQRSTWTFGGGTKLEIK
notes: murine mAb

biological target: T1, human DLL3 (human, UniProt Q9NYJ7 27-492, limits assumed); assay: screen on immobilized hDLL3 or h293-hDLL3 cells
T1 construct: also called hDLL3; DLL3 protein
T1 sequence: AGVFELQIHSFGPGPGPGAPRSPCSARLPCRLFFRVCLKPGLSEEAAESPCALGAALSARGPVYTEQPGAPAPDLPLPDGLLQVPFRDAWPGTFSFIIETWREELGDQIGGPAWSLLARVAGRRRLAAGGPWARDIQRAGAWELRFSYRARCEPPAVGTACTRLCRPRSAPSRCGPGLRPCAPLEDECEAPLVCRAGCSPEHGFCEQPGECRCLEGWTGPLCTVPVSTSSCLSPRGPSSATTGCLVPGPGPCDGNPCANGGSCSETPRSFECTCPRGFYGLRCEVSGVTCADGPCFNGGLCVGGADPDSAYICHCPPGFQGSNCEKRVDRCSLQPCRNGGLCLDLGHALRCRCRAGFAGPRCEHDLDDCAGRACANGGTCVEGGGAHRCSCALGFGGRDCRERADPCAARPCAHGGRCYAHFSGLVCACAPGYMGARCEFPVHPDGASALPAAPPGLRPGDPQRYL
Outline: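 Solid-phase ELISA on DLL3-His (0.5 μg/ml coating), developed with HRP anti-mouse IgG and TMB and read at OD 450, was one screen for supernatants of single-cell hybridomas from human DLL3-immunized mice taken after 10 days in culture. Flow-cytometry binding counted as positive only above the control.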

Binder | binding result
B1 | binds
B2 | binds
B3 | binds
B4 | binds
B5 | binds
B6 | binds
B7 | binds
B8 | binds
B9 | binds
B10 | binds
B11 | binds
B12 | binds
B13 | binds
B14 | binds
B15 | binds
B16 | binds
B17 | binds
B18 | binds
B19 | binds
B20 | binds
B21 | binds
